From the supplement of paper PMC9112550, “Optimization of the antimicrobial peptide Bac7 by deep mutational scanning” (BMC Biology, 2022)

Test system: Escherichia coli TOP10
Test: shrunken log2 fold change of peptide-encoding DNA abundance (4.5 h post-induction vs induction); higher = less antimicrobial activity (less host growth inhibition)
Conditions: time post-induction: 4.5 h; library: site-saturation at positions 5, 18, 19, 20
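Note: peptides expressed intracellularly from a pBAD plasmid library in pooled LB shake-flask culture, induced with 0.3% L-arabinose, DNA abundance read by NGS, three biological replicates, DESeq2 with apeglm shrinkage.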

Sequence | shrunken log2 fold change
RRIRERPPRLPRPRPRPACTPRP | -0.224
RRIRKRPPRLPRPRPRPYVLPRP | -0.234
RRIRVRPPRLPRPRPRPAPPPRP | 0.577
RRIRRRPPRLPRPRPRPTSVPRP | 0.227
RRIRLRPPRLPRPRPRPPHHPRP | 0.253
RRIRLRPPRLPRPRPRPTILPRP | 0.0347
RRIRGRPPRLPRPRPRPYDTPRP | -0.0956
RRIRWRPPRLPRPRPRPSMAPRP | 0.266
RRIRMRPPRLPRPRPRPDVTPRP | 0.109
RRIRPRPPRLPRPRPRPCKNPRP | -0.328
RRIRIRPPRLPRPRPRPCTQPRP | -0.361
RRIRRRPPRLPRPRPRPPGCPRP | 0.417
RRIRIRPPRLPRPRPRPRECPRP | 0.146
RRIRMRPPRLPRPRPRPWQIPRP | -0.224
RRIRLRPPRLPRPRPRPARIPRP | 0.00509
RRIRPRPPRLPRPRPRPFRQPRP | -0.00634
RRIRHRPPRLPRPRPRPDGLPRP | -0.0219
RRIRERPPRLPRPRPRPKLHPRP | -0.0464
RRIRHRPPRLPRPRPRPQLVPRP | -0.0576
RRIRDRPPRLPRPRPRPCISPRP | 0.0261
RRIRNRPPRLPRPRPRPMCHPRP | 0.0429
RRIRVRPPRLPRPRPRPHEDPRP | 0.0277
RRIRKRPPRLPRPRPRPHFKPRP | -0.0252
RRIRRRPPRLPRPRPRPDCQPRP | -0.00305
RRIRYRPPRLPRPRPRPAVCPRP | -0.0135

Sequence | shrunken log2 fold change
RRIRPRPPRLPRPRPRPPNGPRP | 0.593
RRIRTRPPRLPRPRPRPSDGPRP | 0.0381
RRIRMRPPRLPRPRPRPFPIPRP | 0.0281
RRIRARPPRLPRPRPRPTGLPRP | 0.298
RRIRPRPPRLPRPRPRPNWGPRP | -0.057
RRIRTRPPRLPRPRPRPIMIPRP | -0.163
RRIRTRPPRLPRPRPRPPVRPRP | 0.558
RRIRTRPPRLPRPRPRPKCDPRP | 0.118
RRIRWRPPRLPRPRPRPIGTPRP | 0.175
RRIRPRPPRLPRPRPRPIKCPRP | -0.358
RRIRVRPPRLPRPRPRPPEMPRP | 0.116
RRIRRRPPRLPRPRPRPFWCPRP | -0.18
RRIRNRPPRLPRPRPRPNNPPRP | -0.511
RRIRFRPPRLPRPRPRPPETPRP | 0.261
RRIRQRPPRLPRPRPRPCNGPRP | -0.0134
RRIRHRPPRLPRPRPRPLGMPRP | -0.227
RRIRHRPPRLPRPRPRPLEMPRP | -0.236
RRIRIRPPRLPRPRPRPCGLPRP | -0.0428
RRIRQRPPRLPRPRPRPFTTPRP | -0.0246
RRIRVRPPRLPRPRPRPYDWPRP | -0.206
RRIRFRPPRLPRPRPRPKNQPRP | -0.195
RRIRNRPPRLPRPRPRPCKAPRP | -0.1
RRIRIRPPRLPRPRPRPVCCPRP | -0.0749
RRIRWRPPRLPRPRPRPKKSPRP | 0.395
RRIRWRPPRLPRPRPRPTKRPRP | 0.202

Sequence | shrunken log2 fold change
RRIRDRPPRLPRPRPRPMHGPRP | -0.123
RRIRPRPPRLPRPRPRPMHGPRP | 0.0373
RRIRFRPPRLPRPRPRPFVEPRP | -0.27
RRIRARPPRLPRPRPRPHAMPRP | 0.177
RRIRQRPPRLPRPRPRPSHQPRP | -0.0977
RRIRTRPPRLPRPRPRPNARPRP | -0.0251
RRIRVRPPRLPRPRPRPVFMPRP | -0.113
RRIRCRPPRLPRPRPRPHPDPRP | -0.0728
RRIRLRPPRLPRPRPRPQTAPRP | 0.0246
RRIRCRPPRLPRPRPRPENTPRP | -0.297
RRIRWRPPRLPRPRPRPHWSPRP | -0.182
RRIRIRPPRLPRPRPRPTQFPRP | 0.000325
RRIRWRPPRLPRPRPRPDINPRP | 0.235
RRIRTRPPRLPRPRPRPTRLPRP | 0.126
RRIRKRPPRLPRPRPRPAHKPRP | 0.0404
RRIRRRPPRLPRPRPRPCDLPRP | 0.0275
RRIRMRPPRLPRPRPRPATCPRP | 0.398
RRIRLRPPRLPRPRPRPTNVPRP | -0.165
RRIRMRPPRLPRPRPRPYIEPRP | -0.201
RRIRERPPRLPRPRPRPSSCPRP | -0.0232
RRIRNRPPRLPRPRPRPWGNPRP | 0.00408
RRIRGRPPRLPRPRPRPPQLPRP | 0.824
RRIRIRPPRLPRPRPRPSINPRP | -1.03
RRIRGRPPRLPRPRPRPAIGPRP | 0.591
RRIRIRPPRLPRPRPRPSKTPRP | 0.0676

Sequence | shrunken log2 fold change
RRIRIRPPRLPRPRPRPLEPPRP | 0.111
RRIRERPPRLPRPRPRPHKGPRP | -0.194
RRIRNRPPRLPRPRPRPDATPRP | 0.0488
RRIRIRPPRLPRPRPRPPQIPRP | -0.157
RRIRHRPPRLPRPRPRPKHMPRP | -0.0234
RRIRPRPPRLPRPRPRPKDGPRP | 0.0462
RRIRRRPPRLPRPRPRPKGFPRP | -0.12
RRIRFRPPRLPRPRPRPASCPRP | 0.0375
RRIRFRPPRLPRPRPRPGFTPRP | -0.187
RRIRKRPPRLPRPRPRPLIMPRP | -0.376
RRIRQRPPRLPRPRPRPLMIPRP | -0.0458
RRIRMRPPRLPRPRPRPQAPPRP | 0.718
RRIRWRPPRLPRPRPRPFKVPRP | 0.00438
RRIRCRPPRLPRPRPRPGQCPRP | -0.11
RRIRERPPRLPRPRPRPIQYPRP | -0.163
RRIRNRPPRLPRPRPRPWMDPRP | -0.165
RRIRNRPPRLPRPRPRPCLWPRP | -0.359
RRIRCRPPRLPRPRPRPIWWPRP | 0.475
RRIRCRPPRLPRPRPRPSDSPRP | -0.34
RRIRTRPPRLPRPRPRPTAWPRP | 0.48
RRIRARPPRLPRPRPRPMKQPRP | 0.0535
RRIRERPPRLPRPRPRPTTKPRP | 0.0648
RRIRGRPPRLPRPRPRPWISPRP | -0.191
RRIRGRPPRLPRPRPRPFNYPRP | -0.419
RRIRQRPPRLPRPRPRPPTFPRP | 0.0128

Sequence | shrunken log2 fold change
RRIRTRPPRLPRPRPRPPQYPRP | -0.108
RRIRYRPPRLPRPRPRPCNFPRP | -0.303
RRIRRRPPRLPRPRPRPHGLPRP | 0.217
RRIRMRPPRLPRPRPRPVKVPRP | 0.0321
RRIRPRPPRLPRPRPRPLVQPRP | -0.0898
RRIRARPPRLPRPRPRPVWGPRP | 0.383
RRIRFRPPRLPRPRPRPRWGPRP | 0.143
RRIRRRPPRLPRPRPRPCVVPRP | 0.152
RRIRWRPPRLPRPRPRPKCMPRP | 0.531
RRIRARPPRLPRPRPRPAARPRP | 0.828
RRIRRRPPRLPRPRPRPITDPRP | -0.101
RRIRQRPPRLPRPRPRPKPHPRP | 0.167
RRIRIRPPRLPRPRPRPHWRPRP | -0.101
RRIRKRPPRLPRPRPRPVTPPRP | 0.307
RRIRSRPPRLPRPRPRPAPAPRP | 0.741
RRIRQRPPRLPRPRPRPNRWPRP | -0.0161
RRIRKRPPRLPRPRPRPGVYPRP | 2.46
RRIRYRPPRLPRPRPRPCCEPRP | -0.567
RRIRHRPPRLPRPRPRPCPWPRP | -0.168
RRIRARPPRLPRPRPRPQVEPRP | 0.399
RRIRVRPPRLPRPRPRPEVSPRP | 0.0554
RRIRQRPPRLPRPRPRPASDPRP | 0.197
RRIRVRPPRLPRPRPRPAKQPRP | -0.0993
RRIRWRPPRLPRPRPRPCDWPRP | 0.0315
RRIRARPPRLPRPRPRPAFNPRP | 0.273

Sequence | shrunken log2 fold change
RRIRWRPPRLPRPRPRPSIGPRP | -0.175
RRIRPRPPRLPRPRPRPQSIPRP | -0.105
RRIRDRPPRLPRPRPRPPWSPRP | 0.31
RRIRERPPRLPRPRPRPQVSPRP | -0.0262
RRIRSRPPRLPRPRPRPYVNPRP | -0.283
RRIRPRPPRLPRPRPRPQNGPRP | -0.281
RRIRTRPPRLPRPRPRPLTDPRP | -0.198
RRIRKRPPRLPRPRPRPRGMPRP | 0.357
RRIRKRPPRLPRPRPRPHRMPRP | -0.0995
RRIRSRPPRLPRPRPRPWTEPRP | -0.314
RRIRGRPPRLPRPRPRPPVAPRP | 1.22
RRIRKRPPRLPRPRPRPQKDPRP | 0.00486
RRIRKRPPRLPRPRPRPCEFPRP | 0.252
RRIRVRPPRLPRPRPRPKDSPRP | -0.327
RRIRWRPPRLPRPRPRPGSAPRP | 0.432
RRIRLRPPRLPRPRPRPVRYPRP | -0.162
RRIRIRPPRLPRPRPRPAHAPRP | -0.0674
RRIRQRPPRLPRPRPRPDCTPRP | 0.0901
RRIRFRPPRLPRPRPRPVQCPRP | 0.0456
RRIRQRPPRLPRPRPRPLTQPRP | 0.0547
RRIRIRPPRLPRPRPRPIGVPRP | -0.0176
RRIRRRPPRLPRPRPRPPDNPRP | 0.548
RRIRHRPPRLPRPRPRPPGRPRP | 0.593
RRIRIRPPRLPRPRPRPVTKPRP | -0.359
RRIRLRPPRLPRPRPRPMIQPRP | -0.139
